Source: the supplement of paper PMC9732359
± gives the uncertainty stated by the source.

Assay: protein stability index of a GFP-peptide fusion (yeast GPS) (PSI 1-4); higher = more stable; sorted into four equal gates, so the index is relative within each strain
How it was run: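 Each library plasmid carries Cherry plus GFP with a tiled 17-residue yeast protein peptide fused downstream, and the pooled library was carried in yeast. Mid-log cultures in leucine-free medium were sorted into four equal gates by GFP/Cherry ratio. Reads from Illumina sequencing of PCR-amplified plasmids from each gate were assigned to strains by barcodes. Per peptide, the protein stability index was computed as the summed products of gate read frequency and gate number.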

Sequence | protein stability index (doa10∆) | protein stability index (pdr5∆) | protein stability index (san1∆) | protein stability index (ubr1∆)
VFLKHSLSIKLATLHYQ [RPN6] | 2.22 ± 0.059 | 2.57 ± 0.067 | 1.71 ± 0.11 | 3.08 ± 0.055
VFMLDTKRLGTPESVKP [RGR1] | 2.55 ± 0.075 | 2.64 ± 0.091 | 2.54 ± 0.11 | 2.8 ± 0.086
VFTALLRLFINEEGDWS [ITC1] | 3.4 ± 0.29 | 2.08 ± 0.17 |  | 
VGDFLLQYANNAVISHA [SIN4] | 1.99 ± 0.074 | 1.79 ± 0.05 | 1.82 ± 0.074 | 1.49 ± 0.035
VGRFSTISSADFIQNVG [ECM29] | 3.16 ± 0.1 | 2.65 ± 0.079 | 3.03 ± 0.08 | 2.72 ± 0.088
VHDKIWCCRSGSAADTQ [PRE3] | 2.59 ± 0.07 | 2.92 ± 0.076 | 2.64 ± 0.081 | 2.65 ± 0.048
VHESLVTQSNILSQQFD [SRB8] | 2.71 ± 0.07 | 3.09 ± 0.071 | 2.78 ± 0.054 | 3.02 ± 0.052
VHEWEVSKPSLLHETND [PRP8] | 3.25 ± 0.11 | 3.05 ± 0.14 |  | 3.23 ± 0.072
VHKERHDGGFDLVHIKD [RPS4A] | 1.48 ± 0.084 | 1.94 ± 0.069 | 1.61 ± 0.15 | 1.84 ± 0.05
VIAHLTVEALDFREKAL [RET1] | 2.79 ± 0.11 | 2 ± 0.058 | 2.12 ± 0.1 | 2.57 ± 0.062
VIDLEKIKFDESSKLMT [BRR2] | 1.27 ± 0.1 | 1.43 ± 0.086 | 1.18 ± 0.25 | 1.32 ± 0.053
VIFNDNVTETYSVYLIH [SIR3] | 2.35 ± 0.12 | 2.42 ± 0.09 | 2.72 ± 0.072 | 2.28 ± 0.12
VIFVERATPATLTELKD [SRB2] | 2.84 ± 0.091 | 2.02 ± 0.063 | 2.4 ± 0.12 | 3.23 ± 0.098
VIITDGTLLREDDNTPA [YDL088C/ASM4] | 2.94 ± 0.077 | 2.9 ± 0.081 | 2.94 ± 0.056 | 3.01 ± 0.042
VILGADSRTTTGAYIAN [PRE3] | 2.72 ± 0.13 | 3.41 ± 0.11 | 3.12 ± 0.16 | 2.81 ± 0.13
VILRKISMLVTQLQRGG [CSI1] | 1.31 ± 0.059 | 1.57 ± 0.056 | 1.55 ± 0.098 | 1.3 ± 0.045
VIMALMLMSKIGDVDGL [POP5] | 1.49 ± 0.044 | 2 ± 0.053 | 1.84 ± 0.1 | 1.97 ± 0.047
VITALKEPPRDRKKDKN [RPL12A] | 2.48 ± 0.08 | 2.61 ± 0.12 | 2.37 ± 0.1 | 1.85 ± 0.063
VKAAINFSNVTDLTNNS [YIL149C/MLP2] | 2.49 ± 0.044 | 3.11 ± 0.049 | 3.35 ± 0.04 | 2.62 ± 0.04
VKARHGGCDYIFSLLTG [CYT1] | 2.88 ± 0.1 | 3.02 ± 0.12 | 2.61 ± 0.086 | 2.72 ± 0.053
VKEEYDIWQSRDQGNDS [YIL149C/MLP2] |  | 3.5 ± 0.19 | 3.33 ± 0.074 | 3.34 ± 0.11
VKFLVYQGVYSMGSILL [YML031W/NDC1] | 1.65 ± 0.091 | 1.43 ± 0.088 | 1.28 ± 0.099 | 1.7 ± 0.17
VKIHSQESLLSRTFDKY [SRP72] | 2.92 ± 0.053 | 2.79 ± 0.071 | 2.96 ± 0.055 | 2.57 ± 0.041
VKIIRKSETSGRYASYR [RPB5] | 3.09 ± 0.076 | 3.04 ± 0.05 | 3.01 ± 0.053 | 3.09 ± 0.045
VKKASGEIVSINQINEA [RPL20A] | 2.89 ± 0.1 | 2.82 ± 0.092 | 2.81 ± 0.062 | 2.79 ± 0.066
VKKAVTVHSKSRTRAHA [RPL19A] | 3.2 ± 0.1 | 3.2 ± 0.13 | 2.67 ± 0.12 | 3.16 ± 0.1
